Reference: US20060115870

Molecular target: T1, Long S6 substrate peptide (32 amino-acid)
T1 chain: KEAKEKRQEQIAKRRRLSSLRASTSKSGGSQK

B1: Human recombinant Rho kinase (ROKα/ROCK-II, amino acids 11-552), human active, catalog #14-451, Upstate USA, Inc. (protein)
chain: PGAPETAPGDGAGASRQRKLEALIRDPRSPINVESLLDGLNSLVLDLDFPALRKNKNIDNFLNRYEKIVKKIRGLQMKAEDYDVVKVIGRGAFGEVQLVRHKASQKVYAMKLLSKFEMIKRSDSAFFWEERDIMAFANSPWVVQLFYAFQDDRYLYMVMEYMPGGDLVNLMSNYDVPEKWAKFYTAEVVLALDAIHSMGLIHRDVKPDNMLLDKHGHLKLADFGTCMKMDETGMVHCDTAVGTPDYISPEVLKSQGGDGFYGRECDWWSVGVFLYEMLVGDTPFYADSLVGTYSKIMDHKNSLCFPEDAEISKHAKNLICAFLTDREVRLGRNGVEEIRQHPFFKNDQWHWDNIRETAAPVVPELSSDIDSSNFDDIEDDKGDVETFPIPKAFVGNQLPFIGFTYYRENLLLSDSPSCRENDSIQSRKNEESQEIQKKLYTLEEHLSNEMQAKEELEQKCKSVNTRLEKTAKELEEEITLRKSVESALRQLEREKALLQHKNAEYQRKADHEADKKRNLENDVNSLKDQLEDLKKRNQNSQI
In the case of B1, the “Maximum DPMs found in phosphorylated substrate (i.e. product)” value is reported as 52,557±2,058 (n=14) (0.22% of total added DPMs) and the “Net fold phosphorylation of substrate (33P incorporation, filter mat kinase assay)” value is reported as 4.4-fold above basal blanks (n=14 experiments; 42 separate assay determinations).
